Drawing on US20240374745A1, this text covers percent of the maximum binding defined by thermolysin activation for two substances.

The target of one assay is PD-1-hFc (human). Kind of assay: BLI, immobilized PD-1-hFc; untreated sample before LRP1 depletion.
The target in the next assay is CTLA-4-hFc. In words: BLI, immobilized CTLA-4-hFc; untreated sample before LRP1 depletion.
Sequence of CTLA-4-hFc (chain, as listed by the source limits assumed): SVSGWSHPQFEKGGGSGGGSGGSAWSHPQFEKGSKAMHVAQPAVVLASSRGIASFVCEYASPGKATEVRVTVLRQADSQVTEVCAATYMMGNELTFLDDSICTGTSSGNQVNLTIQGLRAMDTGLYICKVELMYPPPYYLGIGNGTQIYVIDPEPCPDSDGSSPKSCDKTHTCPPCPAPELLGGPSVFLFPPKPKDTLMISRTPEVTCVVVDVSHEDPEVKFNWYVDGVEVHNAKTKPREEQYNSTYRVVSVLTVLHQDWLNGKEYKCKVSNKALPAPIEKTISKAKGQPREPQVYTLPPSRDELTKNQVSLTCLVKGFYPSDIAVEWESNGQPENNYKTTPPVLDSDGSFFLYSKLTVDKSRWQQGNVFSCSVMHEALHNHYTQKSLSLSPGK

Sequence of PD-1-hFc (human) (chain, as listed by the source limits assumed): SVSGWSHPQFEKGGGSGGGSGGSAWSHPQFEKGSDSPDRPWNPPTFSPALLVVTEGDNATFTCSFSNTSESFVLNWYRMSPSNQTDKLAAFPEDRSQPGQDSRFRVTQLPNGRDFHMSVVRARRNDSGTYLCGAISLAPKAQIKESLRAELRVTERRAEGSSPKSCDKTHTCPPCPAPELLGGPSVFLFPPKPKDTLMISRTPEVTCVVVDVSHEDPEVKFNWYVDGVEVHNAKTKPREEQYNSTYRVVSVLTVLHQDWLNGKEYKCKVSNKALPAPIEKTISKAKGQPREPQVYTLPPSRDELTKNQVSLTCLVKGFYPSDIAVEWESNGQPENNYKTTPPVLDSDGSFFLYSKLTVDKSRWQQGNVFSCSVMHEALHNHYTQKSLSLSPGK

Consider “A2M-Nivolumab, untreated (native conformation)”, for which the percent of the maximum binding defined by thermolysin activation with PD-1-hFc (human) amounted to 25%.

“A2M-Ipilimumab, untreated (native conformation)”: in the assay with CTLA-4-hFc, the percent of the maximum binding defined by thermolysin activation came out at 25%.
